Experimental data: article PMC9363421

Columns and labels:
GFAT1 [1] = target: GFAT1 (UniProt Q06210); assay: His-TAB1 pull-down after JNK reaction; conditions: reference: His-TAB1 WT treated with JNK; sites S438
GFAT1 [2] = target: GFAT1 (UniProt Q06210); assay: GST pull-down after in vitro kinase reaction; conditions: sites S438
GFAT1 [3] = target: GFAT1 (UniProt Q06210); assay: co-immunoprecipitation of TAB1 mutants; conditions: reference: wild type; sites S438

## TAB1 (from UniProt Q15750) His-TAB1-S438A treated with JNK
GFAT1 [1]
  binding against the reference: weaker

## TAB1 (from UniProt Q15750) His-TAB1-S438A treated with JNK1
GFAT1 [2]; reference: His-TAB1 WT treated with JNK1
  binding against the reference: weaker

## TAB1 (from UniProt Q15750) His-TAB1-S438A treated with p38α
GFAT1 [2]; reference: His-TAB1 WT treated with p38α
  binding against the reference: weaker

## TAB1 (from UniProt Q15750) S438A
GFAT1 [3]
  binding against the reference: weaker
